This assay addresses HLA-A*02:01. Nature of the assay: IEDB peptide-MHC binding, purified MHC/competitive/radioactivity; ≥ and ≤ were set here for values at or beyond the usual limits of such assays. Conditions: source organism: Homo sapiens.
As to VVMGTLVAL, the IC50 (in general, the concentration that gives 50% inhibition) is 66.7 nM. As for LLAGLVSLL, the IC50 was found to be 95.2 nM. Under SVMDPLIYA stands 83.3 nM; under RIWSWLLGA, 100 nM. Under ALLAGLVSL stands 76.3 nM; under FLCWGPFFL, 38.5 nM; under SLDDYNHLV, 26.3 nM. In the case of SLHNLVHSFL it was 263 nM; in that of HLAVIGALL, 106 nM. Turning to FLPWHRLFLL, the IC50 was 205 nM. Under VMGTLVALV stands 27.8 nM. In the case of YAIDLPVSV, the IC50 amounted to 15.6 nM. Under AVIGALLAV stands 17.9 nM; under YVITTQHWL, 104 nM; under FLPWHRLFL, 112 nM. Regarding RLLGSLNST, the IC50 was 167 nM.

As to NMVPFFPPV, the IC50 was found to be 3.9 nM. Consider WLLGAAMVGA, for which the IC50 came out at 32.1 nM. Under VLTALLAGL stands 82 nM. In the case of FLLRWEQEI it was 25.6 nM; in that of RLMKQDFSV, 46.3 nM; in that of FLRNQPLTFA, 139 nM.

(Values after the Immune Epitope Database (IEDB).)
